Measured values reported in article PMC4321091, “Recombinant Cyclodextrinase from Thermococcus kodakarensis KOD1: Expression, Purification, and Enzymatic Characterization” (Archaea, 2015).

Substrate: OC[C@H]1O[C@@H]2O[C@H]3[C@H](O)[C@@H](O)[C@@H](O[C@H]4[C@H](O)[C@@H](O)[C@@H](O[C@H]5[C@H](O)[C@@H](O)[C@@H](O[C@H]6[C@H](O)[C@@H](O)[C@@H](O[C@H]7[C@H](O)[C@@H](O)[C@@H](O[C@H]8[C@H](O)[C@@H](O)[C@@H](O[C@H]1[C@H](O)[C@H]2O)O[C@@H]8CO)O[C@@H]7CO)O[C@@H]6CO)O[C@@H]5CO)O[C@@H]4CO)O[C@@H]3CO
Experiment: purified protein
Assay type: biochemical, Thermococcus kodakarensis
Conditions: 20 mM Tris-HCl pH 7.5, 65°C, 1-10 mg/mL β-CD

B1: CDase-Tk (Tk1770) (Thermococcus kodakarensis KOD1) (protein)
chain: MYKVFGFEENFIHGRVARVEFSLPDAGRWDYAYLLGNFNAFNEGSFRMKHEDKRWIIEIKLPEGLWRYAFSAGGEFLLDPENPEKELYRRPSYKFEREVSLAKIAGNDMVFHRPALLYLYSFGDRTHVLLRSKKGKVDAAYLVTDDTHVKMRKKADGEVFEYYEAVLQETEKLRYSFEVFLKEGKSLTLGPFEAAPFRLDAPSWILDRVFYQIMPDRFAKGRDHEPPFLSWEYYGGDLWGIVEKIDHLEELGVNALYLTPIFESMTYHGYDITDYLRVAERLGGEEAFRELVKALKSRDIKLVLDGVFHHTSFFHPFFRDVVERGEESEYADFYRVKGFPVVSEEFIRVLKSDLPPMEKYQTLKKMGWNYESFFSVWVMPRLNHDSPKVREFVARVMNYWLEKGADGWRLDVAHGVPPGFWREVREGLPDDAYLFGEVMDDPRLYLFGVFHGVMNYPLYDLLLRFFAFGEIGATEFINGIELLSAHLGPAEYFTYNFLDNHDTERFIDLAGKERYLCALTFLMTYKGIPAIFYGDEIGLRGSGEGMSAGRTPMSWDEEKWDFQILRQTMKLIELRRSLKSLQVGSFRVIGAGEKWFVYERKAGSERVLVGINCSWNDVETPVPSNGSNEQIKIPAFSSIIRVKDSMNVHIGSDLQE
notes: pET28a EcoRI/XhoI, E. coli BL21(DE3), DEAE purified
Question: B1 was tested. Which Km did it give?
Answer: The Km was 3.13 ± 0.47 mg/mL.

Question: What about the kcat of the same protein?
Answer: The kcat was 34.6 s⁻¹.
